Here are results for 1 molecule from article PMC6602525 (Cell, 2019).

In the test the target is PfRH5FL (full-length PfRH5 protein comprising amino acids E26–Q526) (P. falciparum (3D7 clone), UniProt Q8IFM5 26-526, T40A | T216A | T286A | T299A). As to the kind of experiment: SPR. Conditions: both partners purified.

B1: PfP113Nt (domain or fragment)
chain: YVHNDVIKFGEENSLKCSQGNLYVLHCEVQCLNGNNEIIHKRCNDDIEKKCNGNNKCIYFFEYELRKKTQSFRNKNSIEISECVESEQNEVKTSTTCLLSNSFILDEAFIQYFFFIKNKNEEPVICKDGNINIKSALLHSPFCEIKLKDISEYIRKKCDNNKECLIDPLDVQKNLLNEEDPCYINNSYVSVNVVCNK
B1: the binding result was “binds”.
